Source: PMC2637981, “High-Level Production, Solubilization and Purification of Synthetic Human GPCR Chemokine Receptors CCR5, CCR3, CXCR4 and CX3CR1” (PLoS ONE, 2009)

Biological target: the molecule itself
Test: SEC; Ni2+ column eluate concentrated and run on Superdex 200 10/300 GL in Buffer C (1x PBS, 0.02% FC14); fractions tested by SDS-PAGE and Western blot; monomer, dimer and higher oligomer resolved

B1: Trx-hCX3CR1 (human chemokine receptor CX3CR1 with N-terminal HP-thioredoxin, expressed from pBAD-hCX3CR1) (receptor, UniProt P49238 1-355, looked up)
chain: MDQFPESVTENFEYDDLAEACYIGDIVVFGTVFLSIFYSVIFAIGLVGNLLVVFALTNSKKPKSVTDIYLLNLALSDLLFVATLPFWTHYLINEKGLHNAMCKFTTAFFFIGFFGSIFFITVISIDRYLAIVLAANSMNNRTVQHGVTISLGVWAAAILVAAPQFMFTKQKENECLGDYPEVLQEIWPVLRNVETNFLGFLLPLLIMSYCYFRIIQTLFSCKNHKKAKAIKLILLVVIVFFLFWTPYNVMIFLETLKLYDFFPSCDMRKDLRLALSVTETVAFSHCCLNPLIYAFAGEKFRRYLYHLYGKCLAVLCGRSVHVDFSSSESQRSRHGSVLSSNFTYHTSDGDALLLL
notes: synthetic full-length gene of 1,065 bp; not shown: HP-thioredoxin (E. coli thioredoxin with E32H and Q64H), N-terminal, kept; His6, C-terminal, kept
binding result: binds

B2: Trx-hCCR3 (human chemokine receptor CCR3 with N-terminal HP-thioredoxin, expressed from pBAD-hCCR3) (receptor, UniProt P51677 1-355, looked up)
chain: MTTSLDTVETFGTTSYYDDVGLLCEKADTRALMAQFVPPLYSLVFTVGLLGNVVVVMILIKYRRLRIMTNIYLLNLAISDLLFLVTLPFWIHYVRGHNWVFGHGMCKLLSGFYHTGLYSEIFFIILLTIDRYLAIVHAVFALRARTVTFGVITSIVTWGLAVLAALPEFIFYETEELFEETLCSALYPEDTVYSWRHFHTLRMTIFCLVLPLLVMAICYTGIIKTLLRCPSKKKYKAIRLIFVIMAVFFIFWTPYNVAILLSSYQSILFGNDCERSKHLDLVMLVTEVIAYSHCCMNPVIYAFVGERFRKYLRHFFHRHLLMHLGRYIPFLPSEKLERTSSVSPSTAEPELSIVF
notes: as for B1
binding result: binds
